From publication PMC12810954, “Targeted computational design of an interleukin-7 superkine with enhanced folding efficiency and immunotherapeutic efficacy” (eLife, 2026)

Target: T1, recombinant murine IL-7 receptor alpha (mouse, UniProt P16872 21-239)
T1 construct: interleukin-7 receptor subunit alpha, mouse; Probably the extracellular domain (catalogue product); The SPR methods say only 'recombinant murine IL7Rα' without a supplier; also called IL7Rα; mIL-7Rα; source: bought: Sino Biological; not shown: polyhistidine, C-terminal, kept
T1 sequence (looked up): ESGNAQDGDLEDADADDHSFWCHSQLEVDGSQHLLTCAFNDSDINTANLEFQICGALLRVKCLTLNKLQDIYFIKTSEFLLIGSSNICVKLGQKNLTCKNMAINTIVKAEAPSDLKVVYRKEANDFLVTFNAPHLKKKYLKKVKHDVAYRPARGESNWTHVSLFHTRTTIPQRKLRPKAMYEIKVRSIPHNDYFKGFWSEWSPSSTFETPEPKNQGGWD
Assay: SPR; murine IL7Rα immobilised on a CM5 chip by amine coupling (Rmax below 30); threefold serial dilutions of WT-IL7 and Neo-7 variants in HBS-EP+ at 50 µL/min, association 180 s, dissociation 600 s; Biacore T200
Settings: both partners purified

Kd: 13.4 nM
koff: 0.0784 s⁻¹
kon: 5.86e+06 M⁻¹ s⁻¹
B1: recombinant WT-IL7, E. coli expressed and refolded (ligand, human, UniProt P13232 26-177, looked up)
chain: DCDIEGKDGKQYESVLMVSIDQLLDSMKEIGSNCLNNEFNFFKRHICDANKEGMFLFRAARKLRQFLKMNSTGDFDLHLLKVSEGTTILLNCTGQVKGRKPAALGEAQPTKSLEENKSLKEQKKLNDLCFLKRLLQEIKTCWNKILMGTKEH
notes: interleukin-7, human, wild type; The methods say only that a similar procedure as for Neo-7 was used
